Measured values reported in article PMC4172982.
Values belong to the substance of their own block, whether it stands above or below them.

How the values were obtained:
[1] = target: 26S proteasome from BALB/c mouse (mouse (endogenous in BALB/c brain)) (UniProt O35226)
[2] = target: G-actin (UniProt P60709); details: cited from earlier work
[3] = target: F-actin (UniProt P60709); details: cited from earlier work
[4] = target: CaM (UniProt P0DP23); experiment: SPR; details: cited from earlier work

UniProt O35226, sequence (O35226 whole entry, looked up): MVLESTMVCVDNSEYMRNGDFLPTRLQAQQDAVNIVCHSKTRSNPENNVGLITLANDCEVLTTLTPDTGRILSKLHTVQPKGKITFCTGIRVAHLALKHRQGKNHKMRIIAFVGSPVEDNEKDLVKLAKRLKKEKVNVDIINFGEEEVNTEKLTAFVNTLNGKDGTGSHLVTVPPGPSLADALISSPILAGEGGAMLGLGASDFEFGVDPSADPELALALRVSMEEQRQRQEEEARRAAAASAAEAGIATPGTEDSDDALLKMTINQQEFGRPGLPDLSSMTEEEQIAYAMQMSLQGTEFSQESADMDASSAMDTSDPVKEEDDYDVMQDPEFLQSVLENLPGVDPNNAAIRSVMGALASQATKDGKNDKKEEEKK

theoretical KD estimated from the inhibition curve of 26S-mediated MBP hydrolysis, assuming that bound 26S proteasome cannot degrade MBP (blocks m1 with m2) [1]: 1000 nM
Substance: Histone H1.3 human, recombinant (from UniProt P16402 1-221) (natural protein)

Substance: MBP (from UniProt P02686)
Kd [2]: 66.6 nM
Kd [3]: 65.3 nM

Substance: MBP (from UniProt P04370)
Kd [4]: 200 nM

Substance: MBP (from UniProt P81558)
Kd [4]: 148 nM
